PMC3435397

Tests used:
[1] = target: B. subtilis S72N TRAP (trp RNA-binding attenuation protein, S72N mutant) (B. subtilis) (UniProt P19466); assay: native MS; nanoflow electrospray of purified S72N TRAP picked by SEC (elution volume less than 14.5 ml); methods in Text S1
[2] = target: B. subtilis S72N TRAP (trp RNA-binding attenuation protein, S72N mutant) (B. subtilis) (UniProt P19466); assay: crystal structure; hanging drop vapor diffusion at 18°C; protein in 10 mM triethanolamine pH 8.0, 100 mM NaCl, 15 mM L-tryptophan, 33.5 mg/ml; six subunits in the asymmetric unit, 12-mer generated by the crystallographic 2-fold axis of P2(1)2(1)2

“B. subtilis S72N TRAP (trp RNA-binding attenuation protein, S72N mutant) (from UniProt P19466 1-71) (natural protein)” gave a stoichiometry N [1] of 12 and a stoichiometry N [2] of 12.
